The results in this text go back to PMC3223260 (Biochimica et biophysica acta, 2011).

First the molecules themselves.
B1: C-domain with the linker region of IF3mt (IF3mt(C+L)) (domain or fragment, human, UniProt Q9H2K0 131-278, looked up)
chain: MTGLQILQERQRLREMEKANPKTGPTLRKELILSSNIGQHDLDTKTKQIQQWIKKKHLVQITIKKGKNVDVSENEMEEIFHQILQTMPGIATFSSRPQAVQGGKALMCVLRAFSKNEEKAYKETQETQERDTLNKDHGNDKESNVLHQ
B2: MRPS32 (natural protein, UniProt P82927 33-142, looked up)
chain: KSTYSSLPDDYNCKVELALTSDARTIVCYHPSVDIPYEHTKPIPRPDPVHNNEETHDLVLKTRLEEKSEHLEQGPMIEQLSKMFFTTKHRWYPRGQYHRRRRKLNPPKDR
B3: MRPS36 (natural protein, UniProt P82908 1-103, looked up)
chain: MMGSKMASASRVVQVVKPHTPLIRFPDRRDNPKPNVSEVLRSAGLPSHTSSISQHSKGSKSPDWLMHQGPPDTAEMIKTLPQKYRRKLVSQEEIEFIQRGGPE
B4: IF3mt lacking the N- and C-terminal extensions (IF3mtΔNC) (domain or fragment, human, UniProt Q9H2K0 61-245, looked up)
chain: TQNEGKKTKKNKTAFSNVGRKISQRVIHLFDEKGNDLGNMHRANVIRLMDERDLRLVQRNTSTEPAEYQLMTGLQILQERQRLREMEKANPKTGPTLRKELILSSNIGQHDLDTKTKQIQQWIKKKHLVQITIKKGKNVDVSENEMEEIFHQILQTMPGIATFSSRPQAVQGGKALMCVLRAFSK

Some targets named below: PTCD3 (bovine (endogenous in bovine …, UniProt Q2KI62 38-688)); MRPS29 (bovine (endogenous in bovine …, UniProt P82922 18-397)); MRPS18-2 (bovine (endogenous in bovine …, UniProt P82918 36-258)).
What all share (experiment): cross-linking
Assay [1] deals with Full length mature human mitochondrial translational initiation factor 3 (IF3mt) (human, UniProt Q9H2K0 32-278).
Assay [2] has as its target B1.
Assay [3] addresses B4.

Sequence of PTCD3 (bovine (Q2KI62 38-688): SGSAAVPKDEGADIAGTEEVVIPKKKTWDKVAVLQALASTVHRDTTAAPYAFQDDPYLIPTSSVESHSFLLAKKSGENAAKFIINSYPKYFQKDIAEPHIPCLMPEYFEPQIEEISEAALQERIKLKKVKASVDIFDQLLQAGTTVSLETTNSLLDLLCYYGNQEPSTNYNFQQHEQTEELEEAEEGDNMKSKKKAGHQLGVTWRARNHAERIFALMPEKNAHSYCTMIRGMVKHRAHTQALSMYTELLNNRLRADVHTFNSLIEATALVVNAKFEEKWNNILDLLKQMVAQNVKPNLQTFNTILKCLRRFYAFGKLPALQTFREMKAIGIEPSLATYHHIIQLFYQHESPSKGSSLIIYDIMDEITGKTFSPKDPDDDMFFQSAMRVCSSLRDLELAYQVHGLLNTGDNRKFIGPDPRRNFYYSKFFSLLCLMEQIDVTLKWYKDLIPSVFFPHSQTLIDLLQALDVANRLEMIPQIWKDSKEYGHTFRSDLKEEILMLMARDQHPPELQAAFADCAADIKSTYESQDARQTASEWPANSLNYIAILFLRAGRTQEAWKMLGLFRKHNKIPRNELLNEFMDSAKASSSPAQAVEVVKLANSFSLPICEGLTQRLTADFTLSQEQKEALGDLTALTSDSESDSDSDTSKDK

Take B1: the binding result with PTCD3 and with MRPS29 was “binds” throughout.
Turning to B2, the binding result in assay [1], in assay [2] and in assay [3] was “binds” throughout.
Consider B3, for which the binding result in assay [1] and in assay [2] was “binds” in each case.
Turning to B4, the binding result with MRPS18-2, in the assay with PTCD3 and with MRPS29 was “binds” throughout.
